Source: paper PMC6277417 (Scientific Reports, 2018)

B1: Ab#2_GLP1: DPP-4-resistant GLP-1 analogue peptide fused by the [G4S]3A linker to the light chain of anti-PCSK9 Ab#2 (antibody, V domains shown)
VH: QVQLVQSGAEVKKPGASVKVSCKASGYTFTSYYMHWVRQAPGQGLEWMGEIHPSGGRTNYNEKFKSRVTMTRDTSTSTVYMELSSLRSEDTAVYYCARERPLYASDLWGQGTTVTVSS
VL: DIQMTQSPSSLSASVGDRVTITCKASQDVHTAVAWYQQKPGKAPKLLIYHASYRYTGVPSRFSGSGSGTDFTFTISSLQPEDIATYYCQQRYSLWRTFGQGTKLEIK
notes: also called non-glycosylated Ab#2_GLP1 fusion; source: CHO cells, transient co-transfection, purified (Protein A MabSelectSure)
B2: anti-PCSK9 antibody Ab#2 (antibody, V domains shown)
VH: QVQLVQSGAEVKKPGASVKVSCKASGYTFTSYYMHWVRQAPGQGLEWMGEIHPSGGRTNYNEKFKSRVTMTRDTSTSTVYMELSSLRSEDTAVYYCARERPLYASDLWGQGTTVTVSS
VL: DIQMTQSPSSLSASVGDRVTITCKASQDVHTAVAWYQQKPGKAPKLLIYHASYRYTGVPSRFSGSGSGTDFTFTISSLQPEDIATYYCQQRYSLWRTFGQGTKLEIK
notes: also called anti-PCSK9 Ab#2; source: CHO cells, transient co-transfection, purified (Protein A MabSelectSure)

Assays:
[1] = biological target: T1, recombinant human PCSK9 (proprotein convertase subtilisin/kexin type 9) (human, UniProt Q8NBP7); test: SPR; sensorgrams of recombinant human PCSK9 binding to Ab#2 and to Ab#2_GLP1; typical of 8 independent experiments; set-up and conditions not told in the main text; conditions: both partners purified
T1 construct: also called recombinant PCSK9; source: recombinant

[2] = biological target: human GLP-1 receptor on stably transfected CHO cells (human) (UniProt P43220)
Chain of human GLP-1 receptor on stably transfected CHO cells (human) (P43220 24-463): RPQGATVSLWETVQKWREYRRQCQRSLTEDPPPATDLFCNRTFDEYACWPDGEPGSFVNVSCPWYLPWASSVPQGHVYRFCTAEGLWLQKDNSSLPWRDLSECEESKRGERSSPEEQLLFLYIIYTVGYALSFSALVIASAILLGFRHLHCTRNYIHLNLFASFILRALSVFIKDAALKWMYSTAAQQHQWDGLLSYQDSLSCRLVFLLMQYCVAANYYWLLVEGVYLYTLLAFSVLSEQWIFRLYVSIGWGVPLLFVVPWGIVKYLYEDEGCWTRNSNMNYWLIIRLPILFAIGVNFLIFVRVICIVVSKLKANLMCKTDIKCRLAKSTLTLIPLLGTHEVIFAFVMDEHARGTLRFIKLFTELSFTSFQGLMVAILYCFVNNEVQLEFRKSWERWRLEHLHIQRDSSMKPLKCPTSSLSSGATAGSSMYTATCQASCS

Row | Binder | binding result [1] | potency in the cAMP accumulation assay, CHO cells expressing human GLP-1R [2] [nM]
1 | B1 | binds | 0.087
2 | B2 | binds | 
